Here are results for one molecule from article PMC5339894, “G196 epitope tag system: a novel monoclonal antibody, G196, recognizes the small, soluble peptide DLVPR with high affinity” (Scientific Reports, 2017).

Entries after “also recorded” stand apart in the source; their conditions may differ.

Assay [1] deals with FLAG-HA-Emerald GFP tagged with C-terminal G196-tag (FHG-G196). Briefly: Western blot analysis of HeLa cell extracts. Format: cell-based, human. The source says:
(§1) Short peptides and paired mAbs specific for the sequences of interest are powerful and irreplaceable tools for scientific research. To ascertain the possible versatility of G196-tag as a versatile fusion tag, we generated several human and yeast expression constructs in which the G196-tag was fused to reporter proteins. First, we expressed FLAG- and HA-tagged Emerald GFP (hereafter abbreviated FHG) as a reporter protein, C-terminally fused with a G196-tag (6P12, SDLVPRGSP) in HeLa cells.
(§2) Figure 5 Application of the G196 epitope tag system for scientific research. (a) Western blot and immunoprecipitation (IP) analysis of FLAG-HA-Emerald GFP (FHG) tagged with C-terminal G196-tag in HeLa cells using mAb G196. HeLa cells were transfected with FHG/pcDNA3 or FHG-G196/pcDNA3. After incubation for two days, the cells were lysed and subjected to Western blotting with anti-FLAG (M2) or G196 mAbs (left panel). These lysates were immunoprecipitated with anti-FLAG (M2) (lanes 7, 8) or G196 (lanes 9, 10) mAbs and subjected to Western blotting with anti-FLAG polyclonal antibody (right panel). (b) Immunofluorescence of GFP- and G196-tagged nuclear protein in HeLa cells using mAb G196. […] Protein extracts were separated by SDS-PAGE and detected with mAb G196 and anti-GFP polyclonal antibody (left panel). […] Asterisk indicates non-specific band also detected using the second Ab alone. […]
(In western blotting, separated proteins are transferred to a membrane and probed.)

Assay [2] relates to cellular proteins of HeLa cells. Description: Western blot cross-reaction with cellular proteins. Format: cell-based, human. To be noted: HeLa cell extracts, Western blot (lanes 3, 4).
Excerpt: as §1, §2

Assay [3] deals with FHG-G196-NAC1. Description: immunofluorescence of GFP- and G196-tagged nuclear protein in HeLa cells. Format: cell-based, human. To be noted: FHG-G196-NAC1, Alexa-594 / Alexa-488 secondary. The protocol:
Figure 5 Application of the G196 epitope tag system for scientific research. (a) Western blot and immunoprecipitation (IP) analysis of FLAG-HA-Emerald GFP (FHG) tagged with C-terminal G196-tag in HeLa cells using mAb G196. HeLa cells were transfected with FHG/pcDNA3 or FHG-G196/pcDNA3. After incubation for two days, the cells were lysed and subjected to Western blotting with anti-FLAG (M2) or G196 mAbs (left panel). These lysates were immunoprecipitated with anti-FLAG (M2) (lanes 7, 8) or G196 (lanes 9, 10) mAbs and subjected to Western blotting with anti-FLAG polyclonal antibody (right panel). (b) Immunofluorescence of GFP- and G196-tagged nuclear protein in HeLa cells using mAb G196. HeLa cells were transfected with FHG-G196-NAC1/pcDNA3. After incubation for two days, the cells were fixed and incubated with mAb G196 and anti-GFP polyclonal Ab, then stained with Alexa-594 anti-mouse and Alexa-488 anti-rabbit secondary antibodies. (c) Western blot and chromatin immunoprecipitation (ChIP) analysis of Atf1-G196-GFP in fission yeast using mAb G196. A DNA fragment containing the transcription factor atf1 gene fused with the G196 epitope-GFP gene was replaced with the genomic atf1 gene. Protein extracts were separated by SDS-PAGE and detected with mAb G196 and anti-GFP polyclonal antibody (left panel). […] Asterisk indicates non-specific band also detected using the second Ab alone. […]

In assay [4] the test system is Atf1-G196-GFP. Description: Western blot analysis of fission yeast extracts. Format: cell-based. To be noted: C-terminally 3 × G196-tagged Atf1, mAb G196 1:2000. An excerpt: C-terminal tagging of the atf1 gene (Supplementary Fig. 1) was accomplished using the G196t2 primer. This primer contains a sequence homologous to a portion of the atf1 coding sequence, a sequence for 3 × G196-tag, and a sequence homologous to another primer, com5. In the first PCR step, two sequences flanking the translational stop codon of the atf1 gene were amplified with the primers t1 and G196t2, and with the primers t3 and t4, using the genomic DNA as a template. The GFP-kanMX cassette was also amplified with the primers com5 and com6, using pFA6a-GFP(S65T)-kanMX as a template. The three PCR products were fused together in the second PCR step with the primers t1 and t4 to produce a DNA fragment for homologous recombination.
Cells (1 × 10^8) growing exponentially in YES medium at 30 °C were harvested to obtain whole cell extracts as described elsewhere. Samples were resolved by SDS-PAGE on 7% gels, semi-dry blotted to PVDF membranes, and detected using an ECL detection system (PerkinElmer, Waltham, MA, USA). Mouse mAb G196 (1:2000) and anti-GFP rabbit polyclonal antibody (1:1000) were used as primary antibodies. HRP-conjugated goat anti-mouse antibody (1:5000, Rockland Immunochemicals) and anti-rabbit antibody (1:2000, Jackson ImmunoResearch Laboratories) were used as secondary antibodies.

B1: mAb G196: mouse mAb (IgG1) raised against GST protein bacterially expressed using the pGEX-2T vector (antibody, V domains shown)
VH: QVKLQESGAELVKPGASVKLSCKASGYTFTNYWMHWVKLRPGQGFEWIGEINPSNGGSNYNEKFKRKATLTVDKSSSTAYMQLSSLTSEDSAVFYCSIWDSYFDYWGQGTTLTVSS
VL: NIVMTQSPKSMSMSVGERVTLTCKASENVVTYVSWYQQKPEQSPKLLIYGASNRYTGVPDRFTGSGSATDFTLTISSVQAEDLADYHCGQGYSYPYTFGGGTKLEIK
As to B1, in assay [1] (HeLa cells transfected with FHG (lane 3)), the “detection of FHG (without G196-tag) by Western blot” value is “not detected”. The “detection of FHG-G196 by Western blot” value in assay [1] (HeLa cells transfected with FHG-G196, two days (lanes 2, 4)) is “detected as a single band; also recorded: as a single band at the proper molecular weight”. Moreover, the “cross-reaction with cellular proteins” value in assay [2] is given as “did not cross-react with cellular proteins; also recorded: did not (cross-)react with cellular proteins”. Besides, the “immunofluorescence detection of nuclear reporter protein NAC1” value in assay [3] was “successfully detected the nuclear reporter protein”. Besides, the “detection of Atf1 by Western blot” value in assay [4] was “detected the Atf1 protein”.
